In general, Km refers to the concentration of substrate that gives half-maximal velocity.

The source of these data is PMC4866589.

Substrate in this data set: Nc1ncnc2c1ncn2[C@@H]1O[C@H](COP(=O)(O)OP(=O)(O)OP(=O)(O)O)[C@@H](O)[C@H]1O
Nature of the data set: ATP Km by microfluidic mobility shift kinase assay. Format: biochemical, Homo sapiens. Conditions: Mg2+ ([…] MgCl2 in the assay buffer).

B1: hTSSK2 (testis-specific serine/threonine kinase 2) (Homo sapiens) (protein)
chain: MDDATVLRKKGYIVGINLGKGSYAKVKSAYSERLKFNVAVKIIDRKKTPTDFVERFLPREMDILATVNHGSIIKTYEIFETSDGRIYIIMELGVQGDLLEFIKCQGALHEDVARKMFRQLSSAVKYCHDLDIVHRDLKCENLLLDKDFNIKLSDFGFSKRCLRDSNGRIILSKTFCGSAAYAAPEVLQSIPYQPKVYDIWSLGVILYIMVCGSMPYDDSDIRKMLRIQKEHRVDFPRSKNLTCECKDLIYRMLQPDVSQRLHIDEILSHSWLQPPKPKATSSASFKREGEGKYRAECKLDTKTGLRPDHRPDHKLGAKTQHRLLVVPENENRMEDRLAETSRAKDHHISGAEVGKAST
As to B1, the Michaelis-Menten constant (Km) was determined as 2.17 ± 0.04 µM.
